Patent US8003360B2, “Debaryomyces castellii phytase” (Adisseo France S.A.S., priority 2005, dated 2011)

Key:
[1] = target: T1, recombinant Debaryomyces castellii CBS 2923 phytase (recPhyt, expressed in Pichia pastoris), SEQ ID No. 2 (Schwanniomyces capriottii, UniProt A2TBB4); assay: Hydrolysis of inositol phosphates by the recombinant phytase (chromatogram); type: biochemical; conditions: InsP3 compared with InsP4, InsP5 and InsP6
Protocol: (§1) Samples are taken at various times for 6 hours. The reaction is stopped by heating at 100° C. (10 minutes).
(§2) J. Agric. Food Chem. 45, 431-436; Türk, M., Sandberg, A. S., Carlsson, N. G. and Andlid, T. (2000) Inositol hexaphosphate hydrolysis by baker's yeast. Capacity, kinetics, and degradation products. J. Agric. Food Chem. 48, 100-104). […] This system makes it possible to detect the Ins P2 to Ins P6, but only the various isomers of Ins P4 and Ins P5 can be separated.
See Example 1, 7.5 and 7.6.

D. castellii phytase [2] = assay: Influence of effectors on phytase activity; type: biochemical, Debaryomyces castellii
[3] = target: T2, Debaryomyces castellii CBS 2923 phytase, native (wild type), SEQ ID No. 2 (Schwanniomyces capriottii, UniProt A2TBB4); assay: Influence of effectors on the phytase activity; type: biochemical; conditions: Table 3
Protocol: (§3) The amount of phosphate released is measured by colorimetery. The visualizing solution, prepared extemporaneously, contains iron sulphate (380 mM, 1 volume) and ammonium heptamolybdate (12 mM, 4 volumes). The absorbance at 700 nm is measured after 30 minutes of visualization at ambient temperature (1 volume of reaction medium+1 volume of visualizing solution), using a UV/visible spectrophotometer (Beckman DU 530).

[4] = system: Schwanniomyces occidentalis phytase; conditions: Segueilha et al., 1992; cited from earlier work
[5] = system: Schwanniomyces occidentalis phytase; conditions: Segueilha et al., 1992; cited from earlier work; remark: listed apart in the source
D. castellii phytase [6] = assay: Kinetic constants of the native phytase on substrates; type: biochemical, Debaryomyces castellii; conditions: +37° C., pH 4 with sodium phytate, pH 5.5 with p-NPP
Protocol: (§4) The effect of pH on the phytase activity is determined using the following buffer solutions: 200 mM glycine-HCl, pH 2-3.5; 200 mM sodium acetate-acetic acid, pH 3.5-7; and 200 mM tris-HCl, pH 7-9. The reactions are carried out at +37° C. using the phytate as substrate. The optimum temperature is determined by varying the temperature from +30° C. to +80° C. […] After the heat treatment, the mixture is cooled in ice and the phytase activity is determined using the phytate as substrate.
(§5) The kinetic constants are determined on 2 substrates.

D. castellii phytase [7] = assay: Substrate specificity, phosphate release kinetics (Table 6A); type: biochemical, Debaryomyces castellii; conditions: substrate 4 mM; 250 mM sodium acetate buffer, 1 mM CaCl2, pH 4, 37° C.
Protocol: The reaction is triggered by the addition of the enzymatic extract (1 volume). The reaction is stopped by acidification of the medium with 20% trichloroacetic acid (1 volume of reaction medium+1 volume of acid). The amount of phosphate released is determined after various incubation times.

[8] = target: T2, Debaryomyces castellii CBS 2923 phytase, native (wild type), SEQ ID No. 2; assay: Kinetic constants (specificity study) of the native phytase; type: biochemical; conditions: native enzyme, 37° C.; pH 4 for sodium phytate, pH 5.5 for p-NPP
Protocol: as §4, §3, §5

recombinant phytase = assay: Kinetic constants of the recombinant phytase on substrates; type: biochemical, Debaryomyces castellii; conditions: Lineweaver-Burk representation
[9] = target: T1, recombinant Debaryomyces castellii CBS 2923 phytase (recPhyt, expressed in Pichia pastoris), SEQ ID No. 2; conditions: recombinant enzyme, Lineweaver-Burk; 37° C.; pH 4 for sodium phytate, pH 5.5 for p-NPP
[10] = Phytase activity as a function of temperature; type: biochemical; conditions: reaction of phytate hydrolysis
Protocol: FIG. 2: Activity of the D. castellii phytase as a function of temperature. The activity is measured at pH 4, at 37° C. for 20 minutes.
as §4
The optimum temperature is determined on the native phytase, by measuring the phytase activity at various temperatures: from 30 to 80° C. (FIG. 2).

[11] = Heat denaturation / heat stability of the phytase; type: physicochemical
Protocol: FIG. 3: Heat denaturation of the D. castellii phytase. […] The activity is then measured at 37° C. for 20 min.
as §4
It is denatured above 68° C., with a 70% loss of activity after one hour at 70° C. The energy for activation of the denaturation, calculated by means of the Arrhenius representation, is 606 kJ/mol.

[12] = Storage stability of the phytase at -20° C. at various pHs; type: physicochemical
[13] = pH-stability and temperature-stability of the phytase; type: physicochemical; conditions: for denaturation: 1 hour
Protocol: FIG. 4: Study of the pH-stability and temperature-stability. The phytase activity of D. castellii is measured after treatment of the extract at various pHs for 1 hour at two temperatures (40° C. or 60° C.). The activity is measured at pH 4.
The phytase activity is measured after incubation of the enzyme at 2 temperatures (40 and 60° C.) in buffers whose pH is between 2 and 8 (FIG. 4). […] On the other hand, in the range 3 to 7, from 80 to 100% of activity is conserved at 40° C. At 60° C., the phytase is more highly denatured at pH 3 and pH 8.

[14] = system: Debaryomyces castellii CBS2923 phytase; assay: Influence of the environment (additives, calcium, buffer molarity) on thermostability of the phytase; type: physicochemical; conditions: control: 250 mM acetate buffer pH 4, 1 mM calcium chloride, no additive
Protocol: At the end of treatment, the extract is cooled in water at +4° C. […] Three types of elements are tested: • sugars or sugar alcohol: sucrose, lactose, trehalose, arabinose, glycerol, • the absence of calcium, • the molarity of the buffer. […] At the end of treatment, the extract is cooled in water to +4° C. […] Materials and Methods).

[15] = Specific phytase activity by phytate hydrolysis; type: biochemical; conditions: native D. castellii phytase, purification steps
Protocol: The protein content is determined by the Bradford method (Bradford, M. (1976) A rapid and sensitive method for the quantification of microgram quantities of proteins utilizing the principle of protein-dye binding. Anal. Biochem. 72, 248-254). (Biorad Protein Assay Dye Reagent Concentrate, BIORAD 500-0006), the absorbance is measured at 595 nm (Beckman DU 530 UV/visible spectrophotometer). The calibration is carried out with a bovine serum albumin range.
One enzymatic unit (U) is defined as the amount of enzyme which releases one μmol of inorganic phosphate in one minute.
as §3

[16] = Hydrolysis of phytic acid followed over time (HPIC, phosphate assay); type: biochemical; conditions: after 300 minutes of hydrolysis, pH 4, 0.6 U/ml
Protocol: as §1, §2
The hydrolysis conditions are described in Materials and Methods. The appearance of the various Ins Pn is monitored over time. After 15 minutes of hydrolysis, Ins P6 has virtually disappeared, 4 major peaks are detected and correspond to Ins (1,2,4,5,6) P5, Ins (1,2,5,6) P4, and peaks of Ins P3, Ins P2 and Ins P1 not identified by this method (FIG. 7). The assignment of the Ins P5 and Ins P4 is confirmed by the addition of authentic inositol samples. After 120 minutes of hydrolysis, the Ins P3 and Ins P1 peaks are predominant. This could reflect a much slower rate of hydrolysis of Ins P3 compared with Ins P4, 5 and 6. […] The enzyme releases all the phosphates. The characterization of the Ins Pn fractions separated by chromatography is carried out by NMR analysis.

[17] = Hydrolysis kinetics of InsP6 followed by NMR; type: biochemical
Protocol: The time period between two spectra is 23 minutes. After an overnight period, 20 μl of enzyme were added in order to accelerate the reaction. After 16 h, the hydrolysis is complete and the spectrum characteristic of inositol is obtained (top spectrum). These kinetics clearly show the successive appearance of InsP5, of InsP4 and of InsP3.
FIG. 10: Faster kinetics making it possible to follow the complete hydrolysis of InsP6 (600 MHz, 17° C., 500 μl D2O, 3.8 mM of InsP6, pH 4.0, 5 μl of enzyme). A spectrum was recorded every 3 min for 20 h (400 spectra). After 10 hours, the hydrolysis is virtually complete. The spectra plotted correspond to one spectrum out of 10 (30 min between two spectra). Some characteristic signals are annotated.
The sample used to follow the hydrolysis by NMR is prepared from a stock solution of InsP6/phosphate buffer, 96/700 mM in D2O. […] Depending on the desired rate of hydrolysis, a greater or smaller amount of enzyme (1 to 20 μl of the stock solution at 3 U/ml) is added. The kinetics are followed at 17° C. by recording a spectrum (32 scans) every 3 minutes for 20 hours (400 spectra). Using the spectra characteristic of the various inositol phosphates determined previously, their appearance and disappearance can be followed over the entire kinetics.
Depending on the temperature (in this case 17° C.) and on the concentration of enzyme, kinetics can be slow (1 μl of enzyme) and the appearance of the first intermediates readily observed. It is under these conditions that the spectral characteristics of InsP5 were obtained and that the successive appearance of Ins P5, Ins P4 and Ins P3 is clearly seen.
In the presence of 5 μl of enzyme, the formation of Ins P2, Ins P1 and inositol is observed. In the intermediate phase, the complexity of the spectra obtained accounts for the mixture of the Ins Pns. After hours, the hydrolysis is not complete. In the presence of 20 μl of enzyme, complete hydrolysis was obtained in approximately 4 hours. […]

## InsP3
[1]
  affinity (in words): weaker affinity

## O=C(O)c1cc[c]([Hg][Cl])cc1 [PCMB]
D. castellii phytase [2]; effector 3 mM, phytate control = 100
  % activity: 94.5%
D. castellii phytase [2]; inhibitors tested, see Table 3
  effect on phytase activity: absence of effect
[3]
  effect on the phytase activity (in words): not sensitive
[4]
  inhibition of the activity (in words): greatly inhibits
[5]
  effect on phytase activity: greatly inhibits

## O=[N+]([O-])c1ccc(OP(=O)(O)O)cc1 [pNPP, p-nitrophenyl phosphate]
D. castellii phytase [6]
  Km: 2270 µM
  Vm: 30.9 µmol/min/mg
D. castellii phytase [7]
  % activity: 135%
[8]
  Km: 2270 µM
Recombinant phytase
  Km: 2050 µM
  Vm: 274.6 U/mg
[9]
  Km: 2050 µM

B1: D. castellii phytase: Debaryomyces castellii CBS 2923 phytase of SEQ ID No. 2, a secreted glycosylated 3-phytase (protein, listed as Debaryomyces castellii)
chain: MVSVSKLINNGLLLVGQGAYQDLASPQQASVEQYNIIRFLGGAAPYIQNKGFGISTDIPDQCTLEQVQLFSRHGERYPSTGSGKKYKAVYEKLMSYNGTFKGELAFLNDDYEYFVPDSVYLEKETSPKNSDSIYAGTTDAMKHGIAFRTKYGELFDTNDTLPVFTSNSGRVYQTSQYFARGFMGDDFSNDTVKTNIISEDADMGANSLTPRDGCFNYNENANTAIVDEYTTEYLTKALNRFKASNPGLNITEDDVSNLFGYCAYELNVKGASPMCDIFTNEEFIQYSYSVDLDDYYSNSAGNNMTRVIGSTLLNASLELLNHDKNENKIWLSFTHDTDIEIFHSAIGILIPDEDLPVDYTPFPSPYSHVGITPQGARTIIEKYACGNESYVRYVINDAVIPIKKCSSGPGFSCNLNDYNDYVAERVAGTNYVEQCGNNNASAVTFYWDYETTNYTASLINS
modifications: glycosylated
[10]
  activation energy calculated according to the Arrhenius representation: 9.08 kcal/mol
[11]; after one hour at 70° C.
  loss of activity: 70%
[11]; heat denaturation
  energy for activation of the denaturation (Arrhenius representation): 145 kcal/mol
[11]; heat denaturation study
  temperature above which the enzyme is denatured: above 68 °C
  temperature up to / below which the enzyme is stable: up to 66 °C
[11]; in 125 mM acetate buffer, pH 4
  temperature at which the enzyme is stable for one hour: 66 °C
[11]; in water
  temperature at which the enzyme is stable for one hour: 60 °C
[12]; 21 days at -20° C., pHs of less than 5
  denaturation after storage: completely denatured
[12]; 67 days at -20° C., pHs of between 5 and 7
  denaturation after storage: no denaturation
[13]; pH 2 and pH 8, 40 and 60° C.
  activity after 1 hour of contact: complete loss of activity
[13]; pH 8, acetate buffer
  denaturation: complete
[13]; pH 8, tris HCl buffer
  denaturation: 50%
[14]
  activity after 1 h at 20° C.: 99
  activity after 1 h at 66.5° C.: 47
[15]
  Specific activity: 156 U/mg
[16]
  amount of phosphate assayed as share of the potential phosphates of the phytate molecule: 100%
[17]; 1.7 mM InsP6, pH 4.0, 17° C., 1 μl enzyme, 20 μl added after an overnight period
  time after which hydrolysis of InsP6 is complete: 16 h
[17]; 3.8 mM InsP6, pH 4.0, 5 μl of enzyme, 17° C.
  time after which hydrolysis of InsP6 is virtually complete: ~10 h
[17]; 20 μl of enzyme, 17° C.
  time to complete hydrolysis of InsP6: approximately 4 hours
